The values that follow come from the RNAGym collection of RNA variant scans (doi:10.1073/pnas.2313332121).

This sample holds only a part of the variants without activity.

B1: TPR 5TU (parent)
chain: GGAUCUUCUCGAUCUAACAAAAAAGACAAAUCUGCCACAAAGCUUGAGAGCAUCUUCGGAUGCAGAGGCGGCAGCCUUCGGUGGCGCGAUAGCGCCAACGUUCUCAACUAUGACACGCAAAACGCGUGCUCCGUUGAAUGGAGUUUAUCAUG

The data set covers variants of B1. As to the kind of experiment: polymerase ribozyme fitness, log enrichment relative to wild type (log ratio); higher = more active; in vitro selection for triplet polymerase activity. The essentials:
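Only genotypes with ≥10 input reads and ≥1 read per output were kept after Illumina sequencing of input and output libraries. These libraries were PCR-built, transcribed mutants of each subunit of a heterodimeric triplet polymerase ribozyme, each put through one triplicate in vitro selection round with frozen incubation at −7 °C, gel excision of extended constructs, streptavidin-bead capture and RT-PCR. Fitness is a logarithmic ratio of genotype enrichment to wild-type enrichment, from inverse-variance-weighted replicate averages, with the logarithm in base 2.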
Take C57A G59A G84U A97U C118G: the “polymerase ribozyme fitness (log ratio)” value is -3.12.

U55A C149U: the “polymerase ribozyme fitness (log ratio)” value is -1.55.

Turning to U55A G62A C96U, the “polymerase ribozyme fitness (log ratio)” value is -2.14.

As for U55G C69U U78A A91U C93U G141A, the “polymerase ribozyme fitness (log ratio)” value is at most -4.2.

For the variant U56C C79U, the “polymerase ribozyme fitness (log ratio)” value was -1.8.

U56G C69U A73U U134C G141U U146A: the “polymerase ribozyme fitness (log ratio)” value is -2.72.

For C54U U82G, the “polymerase ribozyme fitness (log ratio)” value amounted to 0.0533.

For the variant U55A G71U G117A, the “polymerase ribozyme fitness (log ratio)” value was -3.07.

In the case of U56C A64U C93A C95U G133C, the “polymerase ribozyme fitness (log ratio)” value is at most -4.2.

Regarding C54U U104G, the “polymerase ribozyme fitness (log ratio)” value was -1.21.

Regarding U55A C76A, the “polymerase ribozyme fitness (log ratio)” value is -0.81.

With C57G C69A, the “polymerase ribozyme fitness (log ratio)” value is -2.56.

Regarding U56A U130A, the “polymerase ribozyme fitness (log ratio)” value is -2.03.

With U56C C93U, the “polymerase ribozyme fitness (log ratio)” value is -1.53.

On to C57A A98G C123G U145G, for which the “polymerase ribozyme fitness (log ratio)” value came to 0.398.

In the case of U56A A89G, the “polymerase ribozyme fitness (log ratio)” value was -2.69.

Take U56A C75A G141A: the “polymerase ribozyme fitness (log ratio)” value was at most -4.2.

For U56C G74U C76U G84U C125G A138C, the “polymerase ribozyme fitness (log ratio)” value was at most -4.2.

For the variant U56A C57U C96U, the “polymerase ribozyme fitness (log ratio)” value is -0.285.

Consider U55A G84U A113C, for which the “polymerase ribozyme fitness (log ratio)” value was -3.62.

On to U55G C69U, for which the “polymerase ribozyme fitness (log ratio)” value is -2.89.

For the variant C54U U56A G133C, the “polymerase ribozyme fitness (log ratio)” value was -1.7.

On to U55A A98U, for which the “polymerase ribozyme fitness (log ratio)” value was -0.0691.

For the variant C57A G128C, the “polymerase ribozyme fitness (log ratio)” value was -2.62.

As for U55A A91G, the “polymerase ribozyme fitness (log ratio)” value was -2.86.

U55A G58U C93G: the “polymerase ribozyme fitness (log ratio)” value was -3.78.

Regarding C57G C103G, the “polymerase ribozyme fitness (log ratio)” value is -2.16.

Turning to C57A C96A, the “polymerase ribozyme fitness (log ratio)” value was -0.383.

Turning to C57A U61A C95U A97U A115U U144C, the “polymerase ribozyme fitness (log ratio)” value is at most -4.2.

As to U55A U56A A97U, the “polymerase ribozyme fitness (log ratio)” value was -0.565.

Consider U55A U77G U134C U139C, for which the “polymerase ribozyme fitness (log ratio)” value was at most -4.2.

As for U56G G65C G67C C85A C93G C118U C149A, the “polymerase ribozyme fitness (log ratio)” value is at most -4.2.

As for U55G G84A C118U, the “polymerase ribozyme fitness (log ratio)” value is -0.685.

For the variant U56A G83C A122G G152U, the “polymerase ribozyme fitness (log ratio)” value was -3.94.

Turning to C57G C87U A89C C116A C132A, the “polymerase ribozyme fitness (log ratio)” value is -4.13.

Regarding U56G G71C C123G, the “polymerase ribozyme fitness (log ratio)” value is -3.58.

On to U56G G58C U61A, for which the “polymerase ribozyme fitness (log ratio)” value is -2.98.

For U56A A73U C87G C99G, the “polymerase ribozyme fitness (log ratio)” value is at most -4.2.

Turning to U55G G92A, the “polymerase ribozyme fitness (log ratio)” value is -3.13.

As for U55G G92C, the “polymerase ribozyme fitness (log ratio)” value is -0.157.

As for U56A G126U, the “polymerase ribozyme fitness (log ratio)” value was 0.137.

U56C C85G U135C A142U G152A: the “polymerase ribozyme fitness (log ratio)” value was at most -4.2.

Regarding U56G C85G A115U, the “polymerase ribozyme fitness (log ratio)” value is -3.43.

As for U56A G68C U77A C96G U104G C108U G141C, the “polymerase ribozyme fitness (log ratio)” value is at most -4.2.

In the case of U56A C118G A150G, the “polymerase ribozyme fitness (log ratio)” value was -2.41.

Take U56A U77C: the “polymerase ribozyme fitness (log ratio)” value was -2.93.

Consider U55G G59A, for which the “polymerase ribozyme fitness (log ratio)” value is -2.25.

On to U56A U61A, for which the “polymerase ribozyme fitness (log ratio)” value was -1.51.

With U56A U61G, the “polymerase ribozyme fitness (log ratio)” value was -1.7.

For U55A G92A, the “polymerase ribozyme fitness (log ratio)” value was -2.69.

For the variant U55G G68U, the “polymerase ribozyme fitness (log ratio)” value was -3.91.

As for U55G G68A, the “polymerase ribozyme fitness (log ratio)” value was -3.69.

On to U55A G83A G124A, for which the “polymerase ribozyme fitness (log ratio)” value is -0.748.

On to U55A C85A G141C, for which the “polymerase ribozyme fitness (log ratio)” value is -1.86.

As to U55A G141C, the “polymerase ribozyme fitness (log ratio)” value is -0.199.

U55A G88U: the “polymerase ribozyme fitness (log ratio)” value was -4.14.

For the variant U55A A60C G62A G81A C85U G133C, the “polymerase ribozyme fitness (log ratio)” value was at most -4.2.

Take U56A G62A A97G C103A: the “polymerase ribozyme fitness (log ratio)” value is -3.45.

C57A C96U C108U G140A: the “polymerase ribozyme fitness (log ratio)” value was at most -4.2.

On to C54U U56A A60U G70U A115G A150C, for which the “polymerase ribozyme fitness (log ratio)” value was at most -4.2.

For the variant U56A G70A G81C, the “polymerase ribozyme fitness (log ratio)” value was at most -4.2.

For U55A G71A G81C C95G C125U, the “polymerase ribozyme fitness (log ratio)” value was at most -4.2.

Regarding U56A G58U C63A A115U C118U, the “polymerase ribozyme fitness (log ratio)” value is -1.35.

Regarding C54U G71C C116U G136A U146C, the “polymerase ribozyme fitness (log ratio)” value was -3.51.

For the variant U56A C105U A121C G133U G140U, the “polymerase ribozyme fitness (log ratio)” value is at most -4.2.

In the case of U56A A107U, the “polymerase ribozyme fitness (log ratio)” value is -2.87.

For the variant U56G G58A C63G U101G A120U, the “polymerase ribozyme fitness (log ratio)” value was -2.56.

Take U56A U61A C114G: the “polymerase ribozyme fitness (log ratio)” value is -3.96.

On to U55C G70A, for which the “polymerase ribozyme fitness (log ratio)” value was -3.5.

On to C57A U146A, for which the “polymerase ribozyme fitness (log ratio)” value was -0.0166.

U56A G58U A119G C131A: the “polymerase ribozyme fitness (log ratio)” value was -2.04.

With U55A C76A G84U C116U A137U, the “polymerase ribozyme fitness (log ratio)” value was at most -4.2.

Consider U55C G74C G124A, for which the “polymerase ribozyme fitness (log ratio)” value was -4.12.

Take U56A G100U: the “polymerase ribozyme fitness (log ratio)” value is -4.09.

Take U56G G81A U104C U145C: the “polymerase ribozyme fitness (log ratio)” value was -1.47.

On to U55C G59A C96A, for which the “polymerase ribozyme fitness (log ratio)” value is -3.02.

Turning to U55A A89C A119C, the “polymerase ribozyme fitness (log ratio)” value is -0.892.

In the case of U56G U151C, the “polymerase ribozyme fitness (log ratio)” value was at most -4.2.

For the variant U56G G59A G81U A89C G92U U139A, the “polymerase ribozyme fitness (log ratio)” value is at most -4.2.

Take U56A G81A G126U U135C A138C G141C: the “polymerase ribozyme fitness (log ratio)” value is at most -4.2.

U56G A64U G81A G88A C114A A115U G141U: the “polymerase ribozyme fitness (log ratio)” value was at most -4.2.

For U55G A89G G94A A119U, the “polymerase ribozyme fitness (log ratio)” value is -1.9.

C57G A73G C87G A98U C125G G141A: the “polymerase ribozyme fitness (log ratio)” value was at most -4.2.
